The values that follow come from patent US10376545B2, “Methods for producing hormone secreting cells in a subject” (ViaCyte, Inc., priority 2013, dated 2019).

Holding throughout (assay type): cell-based, human
In one assay the test system is PEC derived from hESC. Nature of the assay: Flow cytometry analysis of PEC derived from hESC (CHGA, NKX6.1, PDX1 sub-populations). The procedure:
(§1) So, Activin levels less than about 25 ng/mL are acceptable for maintaining cell mass and yield. Applicant then performed flow cytometry analysis on these cell cultures to determine whether Activin at low levels during stages 3 and 4 had any effect on cell aggregate composition; see Table 14. […] Advantageously, the PDX1 only and Triple Negative sub-populations are reduced as compared to the control, particularly when Activin is used in stages 3 and 4.
To determine the cell composition of the PEC population with the combination of Activin, Heregulin and Wnt during stage 3, flow cytometry was performed after stage 4 and the PEC cellular composition is shown in Table 14. […] Data from flow cytometry supports and is consistent with data from QPCR that the combination of the three factors (AHW) in general delayed or suppressed differentiation of cells committed to the endocrine lineage (CHGA+) in PEC without affecting the production of the non-endocrine (CHGA−) sub-population. The delayed expression of these genes in vitro is consistent with their on-set (or delay) in in vivo mammalian pancreatic development, whereby NGN3 expression in endocrine differentiation occurs after the on-set of PDX1 and NKX6.1 expression in the non-endocrine (CHGA−) sub-population. Additionally, there was no compromise in the PEC mass and yield. […]
Undifferentiated human ESC were expanded and differentiated substantially as described above in Table 17 Protocol #1 for stages 1-4 and in Schulz et al. (2012) supra, except that during the three (3) days of stage 3, 4 different conditions were compared: (i) 0 noggin (“no noggin”) for all 3 days; (ii) 1 day of Noggin at 50 ng/mL and 2 days with no additional Noggin; (iii) 2 days of Noggin at 50 ng/mL and 1 day with no additional noggin; and (iv) 3 days of Noggin at 50 ng/mL. After stage 3, each of these conditions (i) through (iv) then received the standard stage 4 differentiation media cocktail according to Table 8 and Table 17, but without additional Noggin. […] Moreover, with each additional day of noggin treatment, fewer non-endocrine multipotent pancreatic progenitor sub-populations were produced (compare 90.6% with no noggin to 64.6% with 3 days of noggin treatment).
A general note: Flow cytometry measures light scatter and fluorescence of single cells or particles in a stream.

In assay [1] the test system is NGN3, NKX2.2, NKX6.1, PDX1 expression. Kind of assay: Quantitative PCR of relative gene expression in PEC cultures (NGN3, NKX2.2, NKX6.1, PDX1). How it is done: The progression of pluripotent cells to various multipotent and/or differentiated cells can be monitored by determining the relative expression of genes, or gene markers, characteristic of a specific cell, as compared to the expression of a second or control gene, e.g., housekeeping genes. In some processes, the expression of certain markers is determined by detecting the presence or absence of the marker. Alternatively, the expression of certain markers can be determined by measuring the level at which the marker is present in the cells of the cell culture or cell population. In such processes, the measurement of marker expression can be qualitative or quantitative. One method of quantitating the expression of markers that are produced by marker genes is through the use of quantitative PCR (Q-PCR). Methods of performing Q-PCR are well known in the art. Other methods which are known in the art can also be used to quantitate marker gene expression. For example, the expression of a marker gene product can be detected by using antibodies specific for the marker gene product of interest.
(§2) Various growth factors were explored for their ability to suppress genes such as NGN3 during stages 3 and 4. One candidate growth factor was Activin which has diverse functions in stem cell expansion and differentiation. For example, at low levels (e.g. 10 ng/mL), Activin helps maintain pluripotent stem cell pluripotency and cell proliferation. At higher levels (e.g. 100 ng/mL) Activin acts as a differentiation growth factor responsible for definitive endoderm production at stage 1 (see e.g., Table 8). To test its effect on repressing cells committed to the endocrine lineage (CHGA+) during PEC formation, Applicant first tested Activin at a mid-level concentration of about 50 ng/mL with standard adherent differentiation.
Quantitative PCR analysis was performed to determine the relative levels of gene expression at days 8, 10 and 12 of differentiation with the above combinations of Activin and Heregulin (FIG. 13). […]

Assay [2] concerns hES-derived cell aggregates. Nature of the assay: Cell aggregate size / cell mass in suspension culture (imaging). How it is done:
Preliminary studies were performed using Heregulin and FGF. In certain of these studies, Rho-kinase inhibitor, Y-27632, was included. […] An increase in cell aggregate size is advantageous in that it results in higher cell mass for later implantation and testing for function in animals.
as §2, §1
Pluripotent stem cells were differentiated using the standard protocol according to Table 8, except during stage 3, Activin was included at 10 ng/mL or 20 ng/mL in combination with Heregulin at 2 ng/mL or 10 ng/mL; and during stage 4, Activin was reduced to 5 ng/mL with Heregulin at 1 ng/mL for two days then at 10 ng/mL thereafter. […] Increasing Activin to 20 ng/mL with Heregulin remaining the same at 2 ng/mL exacerbated the cell loss (compare FIGS. 12B and 12C, top panel). […]

In assay [3] the test system is INS, GCG, SST, GHRL, PDX1, NKX6.1, NGN3, ID1 expression. Nature of the assay: Nanostring mRNA analysis of endocrine cell cultures.
Setting [4] is: A5 Stg3&4: 5 ng/mL Activin at stages 3 and 4.
Setting [5] is: A5 Stg3: 5 ng/mL Activin at stage 3.
[6] abbreviates: A10 Stg3: 10 ng/mL Activin at stage 3.
Where [7] appears, read: N50-1day: Noggin 50 ng/mL for 1 day of stage 3, after stage 4.
Where [8] appears, read: N50-2day: Noggin 50 ng/mL for 2 days of stage 3, after stage 4.
[9] abbreviates: N50-3d: Noggin 50 ng/mL for 3 days of stage 3, after stage 4.

“Also recorded” adds a separate entry of the source.

B1: Activin: TGFβ superfamily growth factor (protein, UniProt P08476 311-426, looked up)
Inhibin beta A chain: GLECDGKVNICCKKQFFVSFKDIGWNDWIIAPSGYHANYCEGECPSHIAGTSGSSLSFHSTVINHYRMRGHSPFANLKSCCVPTKLRPMSMLYYDDGQNIIKKDIQNMIVEECGCS
modifications: Inhibin beta A chain
notes: TGFβ superfamily growth factor
With B1, in the assay with PEC derived from hESC (setting [4]), the “CHGA+ (Endocrine)” value was 54.9%, the “CHGA−/NKX6.1+/PDX1+ (Non-endocrine)” value came to 38%, the “CHGA−/NKX6.1−/PDX1+ (PDX ONLY)” value came to 4.1% and the “CHGA−/NKX6.1−/PDX1− (Residual or Triple Negative)” value is listed as 2%. Besides, in the assay on PEC derived from hESC (setting [5]), the “CHGA+ (Endocrine)” value is listed as 54.7%, the “CHGA−/NKX6.1+/PDX1+ (Non-endocrine)” value was 31.7%, the “CHGA−/NKX6.1−/PDX1+ (PDX ONLY)” value is reported as 6.7% and the “CHGA−/NKX6.1−/PDX1− (Residual or Triple Negative)” value is given as 5.4%. Further, in the assay on PEC derived from hESC (setting [6]), the “CHGA+ (Endocrine)” value is listed as 56.2%, the “CHGA−/NKX6.1+/PDX1+ (Non-endocrine)” value is 33.7%, the “CHGA−/NKX6.1−/PDX1+ (PDX ONLY)” value turned out to be 4.6% and the “CHGA−/NKX6.1−/PDX1− (Residual or Triple Negative)” value was determined as 3.9%. Besides, the “NGN3 and NKX2.2 expression” value in assay [1] (10 and 20 ng/mL at stage 3 with Heregulin, days 8, 10 and 12) was “capable of repressing NGN3 and NKX2.2”. Moreover, the “NGN3, PDX1 and NKX6.1 gene expression in PEC” value in assay [1] (about 50 ng/mL, standard adherent differentiation) is “capable of suppressing NGN3 expression without suppressing PDX1 and NKX6.1 gene expression”. In assay [2] (5 ng/mL and 10 ng/mL at stages 3 and 4), the “cell mass and yield of aggregates” value is “capable of maintaining cell mass and yield”. In assay [2] (50 ng/mL during stage 3, cell aggregate suspension culture), the “cell mass of aggregates” value was “the overall cell mass drastically decreased”. The “Activin levels acceptable for maintaining cell mass and yield” value in assay [2] (stages 3 and 4, suspension culture) is “less than 25 ng/mL”.

B2: BMP: BMP4, member of the bone morphogenetic protein family (protein, UniProt P12644 293-408, looked up)
Bone morphogenetic protein 4: SPKHHSQRARKKNKNCRRHSLYVDFSDVGWNDWIVAPPGYQAFYCHGDCPFPLADHLNSTNHAIVQTLVNSVNSSIPKACCVPTELSAISMLYLDEYDKVVLKNYQEMVVEGCGCR
B2: in assay [3] (10 ng/mL at stages 6 and 7 or stage 7 alone), the “Insulin and PDX1 expression” value is “simultaneously increase Insulin and PDX1 expression”. For the same molecule, in assay [3] (agent at days 30-35 during stage 7, analyzed at d35), the pancreatic-lineage gene expression entry was “increases expression of INS, PDX1 and IDI; also recorded: decreased GHRL expression”. Moreover, the ID1 gene expression entry in assay [3] (stages 6 and 7) is given as “up-regulate inhibitor-of-differentiation (ID) gene expression”.

B3: noggin: protein that inactivates TGFβ superfamily signaling proteins such as BMP4 (protein, UniProt Q13253 28-232, looked up)
Noggin: QHYLHIRPAPSDNLPLVDLIEHPDPIFDPKEKDLNETLLRSLLGGHYDPGFMATSPPEDRPGGGGGAAGGAEDLAELDQLLRQRPSGAMPSEIKGLEFSEGLAQGKKQRLSKKLRRKLQMWLWSQTFCPVLYAWNDLGSRFWPRYVKVGSCFSKRSCSVPEGMVCKPSKSVHLTVLRWRCQRRGGQRCGWIPIQYPIISECKCSC
With B3, the “non-endocrine multipotent pancreatic progenitor sub-population” value with PEC derived from hESC (3 days of Noggin at 50 ng/mL at stage 3, after stage 4) worked out at 64.6%. The “CHGA+ (Endocrine)” value in the assay on PEC derived from hESC (setting [7]) was found to be 11.9%; in the assay with PEC derived from hESC (setting [8]) it was 25.1%; in the assay on PEC derived from hESC (setting [9]) it was 32.5%. Moreover, the “CHGA−/NKX6.1+ (Non-endocrine)” value in the assay with PEC derived from hESC (setting [7]) came to 82%; in the assay with PEC derived from hESC (setting [8]) it was 71.9%; in the assay on PEC derived from hESC (setting [9]) it was 64.6%. In the assay on PEC derived from hESC (each additional day of noggin treatment at stage 3), the “production of cells committed to the endocrine lineage (CHGA+)” value was “increased levels of production of cells committed to the endocrine lineage (CHGA+)”. Further, the “endocrine lineage marker expression (NKX2.2, INS)” value in assay [1] (each additional day of noggin treatment, after stage 4 (day 12)) is on record as “increased levels of endocrine lineage marker expression”.
